Measured values as given in US20220040297A1 (Chugai, published 2022).
Numbering of substitutions follows the chain as printed. One block for each binder: values may come before it.

Biological target: CD3ε homodimer protein (human, UniProt P07766 23-126, limits assumed)
Experiment: SPR, immobilized CD3ε homodimer;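 further: biacore T200 surface plasmon resonance at 25 °C, antibody variants flowed as analytes over amine-coupled CD3ε homodimer on a CM4 chip, variant binding amount divided by that of GLS3000 antibody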

CD3ε homodimer protein, sequence (P07766 23-126 limits assumed): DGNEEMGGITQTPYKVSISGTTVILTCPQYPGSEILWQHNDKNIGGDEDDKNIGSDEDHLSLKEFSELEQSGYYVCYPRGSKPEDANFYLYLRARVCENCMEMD

B2: GLS3000 V94H (antibody, name in Kabat numbering, V domains shown)
VH: QVQLVESGGGVVQPGRSLRLSCAASGFTFSNAWMHWVRQAPGKGLEWVAQIKAKSNNYATYYAESVKGRFTISRDDSKNSLYLQMNSLKTEDTAVYYCRYVHYGAYYGVDAWGQGTTVTVSS
VL: DIVMTQSPLSLPVTPGEPASISCRSSQSLVHSNRNTYLHWYQQKPGQAPRLLIYKVSNRFSGVPDRFSGSGSGTDFTLKISRVEAEDVGVYYCGQGTQHPYTFGQGTKLEIK
notes: one-arm format as m2
ratio of amounts bound (vs GLS3000): 0.78

B4: GLS3000 T31P (antibody, name in Kabat numbering, V domains shown)
VH: B2 VH
VL: B2 VL with T36P, H99V
notes: one-arm format as m2
ratio of amounts bound (vs GLS3000): 0.31

B6: GLS3000 V51G (antibody, name in Kabat numbering, V domains shown)
VH: B2 VH
VL: B2 VL with V56G, H99V
notes: one-arm format as m2
ratio of amounts bound (vs GLS3000): 0.84

B8: GLS3000 V27cY (antibody, name in Kabat numbering, V domains shown)
VH: B2 VH
VL: B2 VL with V30Y, H99V
notes: one-arm format as m2
ratio of amounts bound (vs GLS3000): 0.77

B9: GLS3000 V51P (antibody, name in Kabat numbering, V domains shown)
VH: B2 VH
VL: B2 VL with V56P, H99V
notes: one-arm format as m2
ratio of amounts bound (vs GLS3000): 0.32

B10: GLS3000 V94A (antibody, name in Kabat numbering, V domains shown)
VH: B2 VH
VL: B2 VL with H99A
notes: one-arm format as m2
ratio of amounts bound (vs GLS3000): 1.05

B11: GLS3000 T97P (antibody, name in Kabat numbering, V domains shown)
VH: B2 VH
VL: B2 VL with H99V, T102P
notes: one-arm format as m2
ratio of amounts bound (vs GLS3000): 0.31

B14: GLS3000 V27cI (antibody, name in Kabat numbering, V domains shown)
VH: B2 VH
VL: B2 VL with V30I, H99V
notes: one-arm format as m2
ratio of amounts bound (vs GLS3000): 0.96

B15: GLS3000 V94E (antibody, name in Kabat numbering, V domains shown)
VH: B2 VH
VL: B2 VL with H99E
notes: one-arm format as m2
ratio of amounts bound (vs GLS3000): 0.5

B16: GLS3000 T92E (antibody, name in Kabat numbering, V domains shown)
VH: B2 VH
VL: B2 VL with T97E, H99V
notes: one-arm format as m2
ratio of amounts bound (vs GLS3000): 0.17

B20: GLS3000 T31E (antibody, name in Kabat numbering, V domains shown)
VH: B2 VH
VL: B2 VL with T36E, H99V
notes: one-arm format as m2
ratio of amounts bound (vs GLS3000): 0.49

B21: GLS3000 T31K (antibody, name in Kabat numbering, V domains shown)
VH: B2 VH
VL: B2 VL with T36K, H99V
notes: one-arm format as m2
ratio of amounts bound (vs GLS3000): 1.04

B25: GLS3000 V51D (antibody, name in Kabat numbering, V domains shown)
VH: B2 VH
VL: B2 VL with V56D, H99V
notes: one-arm format as m2
ratio of amounts bound (vs GLS3000): 0.33

B27: GLS3000 T92I (antibody, name in Kabat numbering, V domains shown)
VH: B2 VH
VL: B2 VL with T97I, H99V
notes: one-arm format as m2
ratio of amounts bound (vs GLS3000): 0.34

B28: GLS3000 T92A (antibody, name in Kabat numbering, V domains shown)
VH: B2 VH
VL: B2 VL with T97A, H99V
notes: one-arm format as m2
ratio of amounts bound (vs GLS3000): 0.63

B31: GLS3000 S56T (antibody, name in Kabat numbering, V domains shown)
VH: B2 VH
VL: B2 VL with S61T, H99V
notes: one-arm format as m2
ratio of amounts bound (vs GLS3000): 0.97

B32: GLS3000 T31N (antibody, name in Kabat numbering, V domains shown)
VH: B2 VH
VL: B2 VL with T36N, H99V
notes: one-arm format as m2
ratio of amounts bound (vs GLS3000): 0.32

B33: GLS3000 S56L (antibody, name in Kabat numbering, V domains shown)
VH: B2 VH
VL: B2 VL with S61L, H99V
notes: one-arm format as m2
ratio of amounts bound (vs GLS3000): 1.02

B38: GLS3000 V94F (antibody, name in Kabat numbering, V domains shown)
VH: B2 VH
VL: B2 VL with H99F
notes: one-arm format as m2
ratio of amounts bound (vs GLS3000): 0.71

B39: GLS3000 T92D (antibody, name in Kabat numbering, V domains shown)
VH: B2 VH
VL: B2 VL with T97D, H99V
notes: one-arm format as m2
ratio of amounts bound (vs GLS3000): 0.18

B40: GLS3000 V94G (antibody, name in Kabat numbering, V domains shown)
VH: B2 VH
VL: B2 VL with H99G
notes: one-arm format as m2
ratio of amounts bound (vs GLS3000): 0.48

B42: GLS3000 V94I (antibody, name in Kabat numbering, V domains shown)
VH: B2 VH
VL: B2 VL with H99I
notes: one-arm format as m2
ratio of amounts bound (vs GLS3000): 0.66

B43: GLS3000 S56K (antibody, name in Kabat numbering, V domains shown)
VH: B2 VH
VL: B2 VL with S61K, H99V
notes: one-arm format as m2
ratio of amounts bound (vs GLS3000): 1.46

B44: GLS3000 S56P (antibody, name in Kabat numbering, V domains shown)
VH: B2 VH
VL: B2 VL with S61P, H99V
notes: one-arm format as m2
ratio of amounts bound (vs GLS3000): 0.95

B45: GLS3000 S56R (antibody, name in Kabat numbering, V domains shown)
VH: B2 VH
VL: B2 VL with S61R, H99V
notes: one-arm format as m2
ratio of amounts bound (vs GLS3000): 1.36

B46: GLS3000 V51I (antibody, name in Kabat numbering, V domains shown)
VH: B2 VH
VL: B2 VL with V56I, H99V
notes: one-arm format as m2
ratio of amounts bound (vs GLS3000): 0.81

Next, values leading:

ratio of amounts bound (vs GLS3000): 0.99
B1: GLS3000 S56I (antibody, name in Kabat numbering, V domains shown)
VH: B2 VH
VL: B2 VL with S61I, H99V
notes: one-arm format as m2

ratio of amounts bound (vs GLS3000): 0.97
B3: GLS3000 T31I (antibody, name in Kabat numbering, V domains shown)
VH: B2 VH
VL: B2 VL with T36I, H99V
notes: one-arm format as m2

ratio of amounts bound (vs GLS3000): 0.95
B5: GLS3000 S56V (antibody, name in Kabat numbering, V domains shown)
VH: B2 VH
VL: B2 VL with S61V, H99V
notes: one-arm format as m2

ratio of amounts bound (vs GLS3000): 0.42
B7: GLS3000 T92L (antibody, name in Kabat numbering, V domains shown)
VH: B2 VH
VL: B2 VL with T97L, H99V
notes: one-arm format as m2

ratio of amounts bound (vs GLS3000): 0.26
B12: GLS3000 T92P (antibody, name in Kabat numbering, V domains shown)
VH: B2 VH
VL: B2 VL with T97P, H99V
notes: one-arm format as m2

ratio of amounts bound (vs GLS3000): 0.64
B13: GLS3000 V51E (antibody, name in Kabat numbering, V domains shown)
VH: B2 VH
VL: B2 VL with V56E, H99V
notes: one-arm format as m2

ratio of amounts bound (vs GLS3000): 1.46
B17: GLS3000 S56Y (antibody, name in Kabat numbering, V domains shown)
VH: B2 VH
VL: B2 VL with S61Y, H99V
notes: one-arm format as m2

ratio of amounts bound (vs GLS3000): 0.96
B18: GLS3000 T92S (antibody, name in Kabat numbering, V domains shown)
VH: B2 VH
VL: B2 VL with T97S, H99V
notes: one-arm format as m2

ratio of amounts bound (vs GLS3000): 0.89
B19: GLS3000 V94D (antibody, name in Kabat numbering, V domains shown)
VH: B2 VH
VL: B2 VL with H99D
notes: one-arm format as m2

ratio of amounts bound (vs GLS3000): 0.33
B22: GLS3000 T92Y (antibody, name in Kabat numbering, V domains shown)
VH: B2 VH
VL: B2 VL with T97Y, H99V
notes: one-arm format as m2

ratio of amounts bound (vs GLS3000): 0.23
B23: GLS3000 T31D (antibody, name in Kabat numbering, V domains shown)
VH: B2 VH
VL: B2 VL with T36D, H99V
notes: one-arm format as m2

ratio of amounts bound (vs GLS3000): 1.38
B24: GLS3000 S56W (antibody, name in Kabat numbering, V domains shown)
VH: B2 VH
VL: B2 VL with S61W, H99V
notes: one-arm format as m2

ratio of amounts bound (vs GLS3000): 0.84
B26: GLS3000 V27cL (antibody, name in Kabat numbering, V domains shown)
VH: B2 VH
VL: B2 VL with V30L, H99V
notes: one-arm format as m2

ratio of amounts bound (vs GLS3000): 0.92
B29: GLS3000 S56N (antibody, name in Kabat numbering, V domains shown)
VH: B2 VH
VL: B2 VL with S61N, H99V
notes: one-arm format as m2

ratio of amounts bound (vs GLS3000): 0.3
B30: GLS3000 V27cP (antibody, name in Kabat numbering, V domains shown)
VH: B2 VH
VL: B2 VL with V30P, H99V
notes: one-arm format as m2

ratio of amounts bound (vs GLS3000): 1.05
B34: GLS3000 S56M (antibody, name in Kabat numbering, V domains shown)
VH: B2 VH
VL: B2 VL with S61M, H99V
notes: one-arm format as m2

ratio of amounts bound (vs GLS3000): 0.51
B35: GLS3000 V27cS (antibody, name in Kabat numbering, V domains shown)
VH: B2 VH
VL: B2 VL with V30S, H99V
notes: one-arm format as m2

ratio of amounts bound (vs GLS3000): 1.04
B36: GLS3000 S56Q (antibody, name in Kabat numbering, V domains shown)
VH: B2 VH
VL: B2 VL with S61Q, H99V
notes: one-arm format as m2

ratio of amounts bound (vs GLS3000): 0.61
B37: GLS3000 V27cE (antibody, name in Kabat numbering, V domains shown)
VH: B2 VH
VL: B2 VL with V30E, H99V
notes: one-arm format as m2

ratio of amounts bound (vs GLS3000): 0.32
B41: GLS3000 V27cD (antibody, name in Kabat numbering, V domains shown)
VH: B2 VH
VL: B2 VL with V30D, H99V
notes: one-arm format as m2
